{
  "source": "paper PMC1277818",
  "about": "“Substrate specificity analysis of protein kinase complex Dbf2-Mob1 by peptide library and proteome array screening” (BMC Biochemistry, 2005)",
  "key": {"[1]": {"biological_target": "T1, FHHDbf2-H6Mob1TM9 (Saccharomyces cerevisiae, UniProt P22204+P40484)", "T1 construct": "made in house; host or cells: Hi5 insect cells (baculovirus)", "T1 sequence (P22204 1-572)": "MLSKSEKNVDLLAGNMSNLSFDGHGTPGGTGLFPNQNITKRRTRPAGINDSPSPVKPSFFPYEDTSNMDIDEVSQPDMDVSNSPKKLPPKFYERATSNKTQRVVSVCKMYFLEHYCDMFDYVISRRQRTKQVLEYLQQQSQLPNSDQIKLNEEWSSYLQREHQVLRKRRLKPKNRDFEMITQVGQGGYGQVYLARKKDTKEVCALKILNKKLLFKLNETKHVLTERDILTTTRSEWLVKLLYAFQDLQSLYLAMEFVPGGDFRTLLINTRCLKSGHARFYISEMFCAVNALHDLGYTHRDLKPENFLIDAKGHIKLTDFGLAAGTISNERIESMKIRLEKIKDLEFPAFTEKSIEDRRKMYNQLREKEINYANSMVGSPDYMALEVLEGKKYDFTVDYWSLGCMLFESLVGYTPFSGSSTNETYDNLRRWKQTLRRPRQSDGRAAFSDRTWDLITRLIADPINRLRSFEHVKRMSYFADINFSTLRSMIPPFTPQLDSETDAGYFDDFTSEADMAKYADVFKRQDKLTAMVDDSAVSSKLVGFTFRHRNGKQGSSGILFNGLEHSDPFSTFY", "T1 sequence (P40484 1-314 partner)": "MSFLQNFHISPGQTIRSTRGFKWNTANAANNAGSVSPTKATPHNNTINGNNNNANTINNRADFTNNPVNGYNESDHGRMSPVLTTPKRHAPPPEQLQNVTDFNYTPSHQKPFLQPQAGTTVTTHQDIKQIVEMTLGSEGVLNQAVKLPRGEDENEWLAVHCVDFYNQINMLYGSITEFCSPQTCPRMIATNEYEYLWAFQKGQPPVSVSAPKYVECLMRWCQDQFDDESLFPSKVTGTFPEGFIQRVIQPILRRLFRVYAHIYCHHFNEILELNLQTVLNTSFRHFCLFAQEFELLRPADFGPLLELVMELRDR", "assay": "Kinase assays of immunoprecipitated TAP-tagged proteins", "type": "biochemical", "conditions": "protein on IgG sepharose beads, ~13 ng Dbf2, 2 μCi [γ-32P]ATP, 30 min, room temperature, SDS-PAGE, autoradiography", "protocol": "TAP-tagged strains were obtained for 22 of the 25 top candidates. TAP-tagged alleles for three of the genes (YJL108C, YBR285W, and YBR108W) were not available, and therefore these candidates were not subjected to further analysis. Asynchronous cultures of the 22 TAP-tagged strains were grown and the TAP-tagged proteins immunoprecipitated with IgG sepharose and analyzed by Western blotting (Figure 2A). Candidates were determined to be phosphorylated if a radioactive signal was detected at the molecular weight predicted for the tagged protein. […] The 17 TAP-tagged proteins that were expressed and purified were used in Dbf2-Mob1 kinase assays (Figure 2B). Of the 17, 10 were determined to be phosphorylated.\nThe TAP-tagged proteins were immunoprecipitated with IgG sepharose beads from asynchronous cultures, fractionated on SDS-PAGE and immunoblotted with anti-TAP. […] (B) The TAP-tagged proteins expressed in (A) were treated with ^FHHDbf2-^H6Mob1^TM9 in the presence of [γ-^32P]ATP, fractionated on SDS-PAGE and detected by autoradiography.\nYeast strains containing TAP-tagged genes (Open Biosystems) were grown to OD600 ~2.0 in 25 mL of YPD. […] Immunoprecipitated TAP-tagged proteins were analyzed by SDS-PAGE and detected by Western blotting using the primary antibody anti-TAP (Open Biosystems) followed by goat anti-rabbit horseradish peroxidase (HRP)-conjugate (Bio-Rad), and ECL. […]"}, "[2]": {"biological_target": "T1, FHHDbf2-H6Mob1TM9", "assay": "Yeast proteome chip assay", "type": "biochemical", "conditions": "[γ-33P]ATP, chips in duplicate", "summary_of_the_method": "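GST-tagged yeast proteins (~4,400 strains) spotted on proteome microarrays, probed in duplicate with FHHDbf2-H6Mob1TM9 in DKB plus [γ-33P]ATP; kinase-dead Dbf2(N305A) and kinase-free buffer served as controls. Positives: 3 of 4 spots ≥2 SD above background, fourth ≥1.5 SD.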"}, "[3]": {"system": "kinase-inactive FHHDbf2(N305A)-H6Mob1TM9", "assay": "Kinase assays of immunoprecipitated TAP-tagged proteins with the kinase-inactive complex", "type": "biochemical, Saccharomyces cerevisiae", "conditions": "protein on IgG sepharose beads, ~13 ng Dbf2, 2 μCi [γ-32P]ATP, 30 min, room temperature, SDS-PAGE, autoradiography"}, "[4]": {"conditions": "Table 3, GST fusion proteins on proteome chip, computer analysis"}, "[5]": {"conditions": "Table 4, the 25 proteins with highest signal relative to protein amount"}},
  "data": [
    {"molecule": "YDR226W: GST fusion yeast protein on proteome chip (protein, UniProt P07170 3-222, looked up, GST tag, GST fusion yeast protein on proteome chip) Adenylate kinase: SSESIRMVLIGPPGAGKGTQAPNLQERFHAAHLATGDMLRSQIAKGTQLGLEAKKIMDQGGLVSDDIMVNMIKDELTNNPACKNGFILDGFPRTIPQAEKLDQMLKEQGTPLEKAIELKVDDELLVARITGRLIHPASGRSYHKIFNPPKEDMKDDVTGEALVQRSDDNADALKKRLAAYHAQTEPIVDFYKKTGIWAGVDASQPPATVWADILNKLGKD", "values": [
      {"measurement": "Phosphorylation of TAP-tagged protein by Dbf2-Mob1", "setting": "[1]", "value": "phosphorylated by Dbf2-Mob1"},
      {"measurement": "Slide Signal (after normalization)", "setting": "[2]; [4]", "value": 3.1016},
      {"measurement": "Slide Signal (after normalization)", "setting": "[2]; [5]", "value": 3.1016},
      {"measurement": "Phosphorylation of TAP-tagged protein by kinase-inactive Dbf2(N305A)-Mob1", "setting": "[3]", "value": "not its kinase inactive form"}
    ]},
    {"molecule": "YOR362C: GST fusion yeast protein on proteome chip (protein, UniProt P21242 2-288, looked up, GST tag, GST fusion yeast protein on proteome chip) Probable proteasome subunit …: TSIGTGYDLSNSVFSPDGRNFQVEYAVKAVENGTTSIGIKCNDGVVFAVEKLITSKLLVPQKNVKIQVVDRHIGCVYSGLIPDGRHLVNRGREEAASFKKLYKTPIPIPAFADRLGQYVQAHTLYNSVRPFGVSTIFGGVDKNGAHLYMLEPSGSYWGYKGAATGKGRQSAKAELEKLVDHHPEGLSAREAVKQAAKIIYLAHEDNKEKDFELEISWCSLSETNGLHKFVKGDLLQEAIDFAQKEINGDDDEDEDDSDNVMSSDDENAPVATNANATTDQEGDIHLE", "values": [
      {"measurement": "Phosphorylation of TAP-tagged protein by Dbf2-Mob1", "setting": "[1]", "value": "phosphorylated by Dbf2-Mob1"},
      {"measurement": "Slide Signal (after normalization)", "setting": "[2]; [4]", "value": 0.9895},
      {"measurement": "Slide Signal (after normalization)", "setting": "[2]; [5]", "value": 0.9895},
      {"measurement": "Phosphorylation of TAP-tagged protein by kinase-inactive Dbf2(N305A)-Mob1", "setting": "[3]", "value": "not its kinase inactive form"}
    ]}
  ]
}
